{"source": "patent US20200000897A1", "about": "(published 2020)", "binders": {"B1": {"name": "KLYPQCLQK (peptide)", "peptide": "KLYPQCLQK"}, "B2": {"name": "TVYDSIWCNMK (peptide)", "peptide": "TVYDSIWCNMK"}, "B3": {"name": "VTADGALAMEK (peptide)", "peptide": "VTADGALAMEK"}, "B4": {"name": "KINQYIIKK (peptide)", "peptide": "KINQYIIKK"}, "B5": {"name": "KQALSLVRK (peptide)", "peptide": "KQALSLVRK"}, "B6": {"name": "KTQFPQLK (peptide)", "peptide": "KTQFPQLK"}, "B7": {"name": "RVCMTVDSLVNK (peptide)", "peptide": "RVCMTVDSLVNK"}, "B8": {"name": "VVFPFPVNKR (peptide)", "peptide": "VVFPFPVNKR"}, "B9": {"name": "HSAGIFSMY (peptide)", "peptide": "HSAGIFSMY"}, "B10": {"name": "SLFPYYNNLY (peptide)", "peptide": "SLFPYYNNLY"}, "B11": {"name": "RTIEELQNK (peptide)", "peptide": "RTIEELQNK"}, "B12": {"name": "IINESLLFY (peptide)", "peptide": "IINESLLFY"}, "B13": {"name": "AIGTPLIGK (peptide)", "peptide": "AIGTPLIGK"}, "B14": {"name": "FSNNHPSTPK (peptide)", "peptide": "FSNNHPSTPK"}, "B15": {"name": "IIFVPEMNK (peptide)", "peptide": "IIFVPEMNK"}, "B16": {"name": "ITAPLMPLGK (peptide)", "peptide": "ITAPLMPLGK"}, "B17": {"name": "SLYDSEPRKK (peptide)", "peptide": "SLYDSEPRKK"}, "B18": {"name": "LLYGNGPGYVLK (peptide)", "peptide": "LLYGNGPGYVLK"}, "B19": {"name": "RLSAESKDLLK (peptide)", "peptide": "RLSAESKDLLK"}, "B20": {"name": "RVLYRPQLEK (peptide)", "peptide": "RVLYRPQLEK"}, "B21": {"name": "VLYRPQLEK (peptide)", "peptide": "VLYRPQLEK"}, "B22": {"name": "VVDDSQLPK (peptide)", "peptide": "VVDDSQLPK"}, "B23": {"name": "GVTITKTLK (peptide)", "peptide": "GVTITKTLK"}, "B24": {"name": "QIRAELMKK (peptide)", "peptide": "QIRAELMKK"}, "B25": {"name": "RCFSGPYLNK (peptide)", "peptide": "RCFSGPYLNK"}, "B26": {"name": "GLSTILLYH (peptide)", "peptide": "GLSTILLYH"}, "B27": {"name": "SVLSRMLVR (peptide)", "peptide": "SVLSRMLVR"}, "B28": {"name": "ALCGTQLFY (peptide)", "peptide": "ALCGTQLFY"}, "B29": {"name": "RLVELAGQSLLK (peptide)", "peptide": "RLVELAGQSLLK"}, "B30": {"name": "TTYYPSPLNK (peptide)", "peptide": "TTYYPSPLNK"}, "B31": {"name": "KTGTFVLYKS (peptide)", "peptide": "KTGTFVLYKS"}, "B32": {"name": "HAFPPGPNY (peptide)", "peptide": "HAFPPGPNY"}, "B33": {"name": "ALNDRFAGY (peptide)", "peptide": "ALNDRFAGY"}, "B34": {"name": "HVLYPVPLESY (peptide)", "peptide": "HVLYPVPLESY"}, "B35": {"name": "VVTGNVPLK (peptide)", "peptide": "VVTGNVPLK"}, "B36": {"name": "GIFPKIMPK (peptide)", "peptide": "GIFPKIMPK"}, "B37": {"name": "KGWNGQIFK (peptide)", "peptide": "KGWNGQIFK"}, "B38": {"name": "RVKEIVINK (peptide)", "peptide": "RVKEIVINK"}, "B39": {"name": "KLLEDMVEK (peptide)", "peptide": "KLLEDMVEK"}, "B40": {"name": "VVREILHAQTLK (peptide)", "peptide": "VVREILHAQTLK"}, "B41": {"name": "ALFGNALVFY (peptide)", "peptide": "ALFGNALVFY"}, "B42": {"name": "VTAVASLLK (peptide)", "peptide": "VTAVASLLK"}, "B43": {"name": "KGPMAGILAY (peptide)", "peptide": "KGPMAGILAY"}, "B44": {"name": "SSFRPLLSK (peptide)", "peptide": "SSFRPLLSK"}, "B45": {"name": "HAFFPKTHR (peptide)", "peptide": "HAFFPKTHR"}, "B46": {"name": "AVAAVLLSR (peptide)", "peptide": "AVAAVLLSR"}, "B47": {"name": "GMYEYGSIEK (peptide)", "peptide": "GMYEYGSIEK"}, "B48": {"name": "EVILTTKTPK (peptide)", "peptide": "EVILTTKTPK"}, "B49": {"name": "SIFGLAPGK (peptide)", "peptide": "SIFGLAPGK"}, "B50": {"name": "LLDAEPPILY (peptide)", "peptide": "LLDAEPPILY"}, "B51": {"name": "VLYELGIIGNNK (peptide)", "peptide": "VLYELGIIGNNK"}, "B52": {"name": "RLGAARGQLR (peptide)", "peptide": "RLGAARGQLR"}, "B53": {"name": "VLLLLSLLH (peptide)", "peptide": "VLLLLSLLH"}, "B54": {"name": "KCYEVGMMK (peptide)", "peptide": "KCYEVGMMK"}}, "target": "T1, HLA-A*03:01 (human)", "T1 construct": "MHC class I monomer first loaded with a UV-sensitive peptide that is cleaved by UV irradiation and exchanged for the test peptide; captured on streptavidin plates; also called peptide-receptive MHC molecules", "test": "UV-ligand exchange, anti-b2m ELISA; peptide exchange yield grade (>10% +, >20% ++, >50% +++, >75% ++++)", "excerpt": "Candidate peptides for T cell based therapies according to the present invention were further tested for their MHC binding capacity (affinity). The individual peptide-MHC complexes were produced by UV-ligand exchange, where a UV-sensitive peptide is cleaved upon UV-irradiation and exchanged with the peptide of interest as analyzed. Only peptide candidates that can effectively bind and stabilize the peptide-receptive MHC molecules prevent dissociation of the MHC complexes. To determine the yield of the exchange reaction, an ELISA was performed based on the detection of the light chain (β2m) of stabilized MHC complexes. The assay was performed as generally described in Rodenko et al. (Rodenko et al., 2006)\n96 well MAXISorp plates (NUNC) were coated over night with 2 ug/ml streptavidin in PBS at room temperature, washed 4× and blocked forl h at 37° C. in 2% BSA containing blocking buffer. Refolded HLA-A*02:01/MLA-001 monomers served as standards, covering the range of 15-500 ng/ml. Peptide-MHC monomers of the UV-exchange reaction were diluted 100-fold in blocking buffer. Samples were incubated for 1 h at 37° C., washed four times, incubated with 2 ug/ml HRP conjugated anti-β2m for 1 h at 37° C., washed again and detected with TMB solution that is stopped with […]. Absorption was measured at 450 nm.", "data": [{"binder": "B1", "values": [{"measurement": "peptide exchange yield", "value": "> 75", "unit": "%"}]}, {"binder": "B2", "values": [{"measurement": "peptide exchange yield", "value": "> 75", "unit": "%"}]}, {"binder": "B3", "values": [{"measurement": "peptide exchange yield", "value": "50 to 75", "unit": "%"}]}, {"binder": "B4", "values": [{"measurement": "peptide exchange yield", "value": "50 to 75", "unit": "%"}]}, {"binder": "B5", "values": [{"measurement": "peptide exchange yield", "value": "50 to 75", "unit": "%"}]}, {"binder": "B6", "values": [{"measurement": "peptide exchange yield", "value": "20 to 50", "unit": "%"}]}, {"binder": "B7", "values": [{"measurement": "peptide exchange yield", "value": "> 75", "unit": "%"}]}, {"binder": "B8", "values": [{"measurement": "peptide exchange yield", "value": "50 to 75", "unit": "%"}]}, {"binder": "B9", "values": [{"measurement": "peptide exchange yield", "value": "20 to 50", "unit": "%"}]}, {"binder": "B10", "values": [{"measurement": "peptide exchange yield", "value": "10 to 20", "unit": "%"}]}, {"binder": "B11", "values": [{"measurement": "peptide exchange yield", "value": "50 to 75", "unit": "%"}]}, {"binder": "B12", "values": [{"measurement": "peptide exchange yield", "value": "50 to 75", "unit": "%"}]}, {"binder": "B13", "values": [{"measurement": "peptide exchange yield", "value": "50 to 75", "unit": "%"}]}, {"binder": "B14", "values": [{"measurement": "peptide exchange yield", "value": "50 to 75", "unit": "%"}]}, {"binder": "B15", "values": [{"measurement": "peptide exchange yield", "value": "> 75", "unit": "%"}]}, {"binder": "B16", "values": [{"measurement": "peptide exchange yield", "value": "> 75", "unit": "%"}]}, {"binder": "B17", "values": [{"measurement": "peptide exchange yield", "value": "> 75", "unit": "%"}]}, {"binder": "B18", "values": [{"measurement": "peptide exchange yield", "value": "> 75", "unit": "%"}]}, {"binder": "B19", "values": [{"measurement": "peptide exchange yield", "value": "50 to 75", "unit": "%"}]}, {"binder": "B20", "values": [{"measurement": "peptide exchange yield", "value": "50 to 75", "unit": "%"}]}, {"binder": "B21", "values": [{"measurement": "peptide exchange yield", "value": "> 75", "unit": "%"}]}, {"binder": "B22", "values": [{"measurement": "peptide exchange yield", "value": "20 to 50", "unit": "%"}]}, {"binder": "B23", "values": [{"measurement": "peptide exchange yield", "value": "50 to 75", "unit": "%"}]}, {"binder": "B24", "values": [{"measurement": "peptide exchange yield", "value": "> 75", "unit": "%"}]}, {"binder": "B25", "values": [{"measurement": "peptide exchange yield", "value": "> 75", "unit": "%"}]}, {"binder": "B26", "values": [{"measurement": "peptide exchange yield", "value": "> 75", "unit": "%"}]}, {"binder": "B27", "values": [{"measurement": "peptide exchange yield", "value": "> 75", "unit": "%"}]}, {"binder": "B28", "values": [{"measurement": "peptide exchange yield", "value": "> 75", "unit": "%"}]}, {"binder": "B29", "values": [{"measurement": "peptide exchange yield", "value": "> 75", "unit": "%"}]}, {"binder": "B30", "values": [{"measurement": "peptide exchange yield", "value": "50 to 75", "unit": "%"}]}, {"binder": "B31", "values": [{"measurement": "peptide exchange yield", "value": "50 to 75", "unit": "%"}]}, {"binder": "B32", "values": [{"measurement": "peptide exchange yield", "value": "10 to 20", "unit": "%"}]}, {"binder": "B33", "values": [{"measurement": "peptide exchange yield", "value": "50 to 75", "unit": "%"}]}, {"binder": "B34", "values": [{"measurement": "peptide exchange yield", "value": "50 to 75", "unit": "%"}]}, {"binder": "B35", "values": [{"measurement": "peptide exchange yield", "value": "50 to 75", "unit": "%"}]}, {"binder": "B36", "values": [{"measurement": "peptide exchange yield", "value": "> 75", "unit": "%"}]}, {"binder": "B37", "values": [{"measurement": "peptide exchange yield", "value": "50 to 75", "unit": "%"}]}, {"binder": "B38", "values": [{"measurement": "peptide exchange yield", "value": "50 to 75", "unit": "%"}]}, {"binder": "B39", "values": [{"measurement": "peptide exchange yield", "value": "20 to 50", "unit": "%"}]}, {"binder": "B40", "values": [{"measurement": "peptide exchange yield", "value": "50 to 75", "unit": "%"}]}, {"binder": "B41", "values": [{"measurement": "peptide exchange yield", "value": "> 75", "unit": "%"}]}, {"binder": "B42", "values": [{"measurement": "peptide exchange yield", "value": "> 75", "unit": "%"}]}, {"binder": "B43", "values": [{"measurement": "peptide exchange yield", "value": "20 to 50", "unit": "%"}]}, {"binder": "B44", "values": [{"measurement": "peptide exchange yield", "value": "> 75", "unit": "%"}]}, {"binder": "B45", "values": [{"measurement": "peptide exchange yield", "value": "> 75", "unit": "%"}]}, {"binder": "B46", "values": [{"measurement": "peptide exchange yield", "value": "50 to 75", "unit": "%"}]}, {"binder": "B47", "values": [{"measurement": "peptide exchange yield", "value": "> 75", "unit": "%"}]}, {"binder": "B48", "values": [{"measurement": "peptide exchange yield", "value": "20 to 50", "unit": "%"}]}, {"binder": "B49", "values": [{"measurement": "peptide exchange yield", "value": "> 75", "unit": "%"}]}, {"binder": "B50", "values": [{"measurement": "peptide exchange yield", "value": "10 to 20", "unit": "%"}]}, {"binder": "B51", "values": [{"measurement": "peptide exchange yield", "value": "50 to 75", "unit": "%"}]}, {"binder": "B52", "values": [{"measurement": "peptide exchange yield", "value": "20 to 50", "unit": "%"}]}, {"binder": "B53", "values": [{"measurement": "peptide exchange yield", "value": "20 to 50", "unit": "%"}]}, {"binder": "B54", "values": [{"measurement": "peptide exchange yield", "value": "> 75", "unit": "%"}]}]}
